Measurements published in PMC3714538.

The substances below were run against LC3B (protein of the ITC experiments) (UniProt Q9GZQ8) (assay: ITC).
A Kd of 13 µM was found for “OPTN peptide LIR_P1 (pSer177) (from UniProt Q96CV9 169-184)” in this work.
A Kd of 67 µM was found for “OPTN peptide LIR_P0 (no phosphorylation) (from UniProt Q96CV9 169-184)” in this work.
A Kd of 5 µM was found for “OPTN peptide LIR_Ptot (all serines phosphorylated) (from UniProt Q96CV9 169-184)” in this work.
